The target in test [1] is T1, Human TMPRSS2 recombinant protein, extracellular region (N-terminal His tag, C-terminal Strep-tag II) (human, UniProt O15393 106-492).
T1 construct: also called Human TMPRSS2 recombinant proteins; extracellular region of human TMPRSS2
Nature of the test: SPR (BIACore). A general note: Surface plasmon resonance follows binding to a sensor surface in real time, without labels.

Test [2] addresses T2, Human TMPRSS2 expressed on cells (human, UniProt O15393 1-492).
T2 construct: also called TMPRSS2 expressing cells; Daudi-TMPRSS2 transfectant

Test [3] addresses T3, TMPRSS-11D (human, UniProt O60235).
T3 sequence (single chain, looked up): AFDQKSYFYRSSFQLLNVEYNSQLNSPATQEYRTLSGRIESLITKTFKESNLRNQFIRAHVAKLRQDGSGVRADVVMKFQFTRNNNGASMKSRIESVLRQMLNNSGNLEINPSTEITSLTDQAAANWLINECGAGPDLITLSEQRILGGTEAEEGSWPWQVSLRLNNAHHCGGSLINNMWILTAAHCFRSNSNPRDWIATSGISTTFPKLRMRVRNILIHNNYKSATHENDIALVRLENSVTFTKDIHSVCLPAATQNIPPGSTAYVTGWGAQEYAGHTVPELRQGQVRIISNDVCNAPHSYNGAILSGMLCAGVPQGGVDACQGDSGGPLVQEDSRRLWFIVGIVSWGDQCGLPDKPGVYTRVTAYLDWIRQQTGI
Nature of the test: ELISA, Strep-tagged protein on streptavidin plate. For orientation: ELISA stands for enzyme-linked immunosorbent assay.

The target of test [4] is T4, TMPRSS-11E (human, UniProt Q9UL52).
T4 sequence (single chain, looked up): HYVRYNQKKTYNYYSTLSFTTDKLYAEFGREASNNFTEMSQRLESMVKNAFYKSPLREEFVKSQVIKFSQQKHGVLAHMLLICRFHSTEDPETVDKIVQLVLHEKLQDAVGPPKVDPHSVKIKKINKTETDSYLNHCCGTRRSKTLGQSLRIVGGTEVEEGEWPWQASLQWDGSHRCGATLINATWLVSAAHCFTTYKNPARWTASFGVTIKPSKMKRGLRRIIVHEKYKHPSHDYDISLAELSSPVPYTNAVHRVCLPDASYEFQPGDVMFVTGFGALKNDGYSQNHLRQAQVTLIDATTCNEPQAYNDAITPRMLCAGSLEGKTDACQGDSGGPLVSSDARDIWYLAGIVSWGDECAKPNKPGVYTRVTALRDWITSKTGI
The experiment in a line: ELISA, Strep-tagged protein on streptavidin plate.

The target in test [5] is TMPRSS-11F (human, UniProt Q6ZWK6). The experiment in a line: ELISA, Strep-tagged protein on streptavidin plate.
Chain of TMPRSS-11F (Q6ZWK6 54-438 limits assumed): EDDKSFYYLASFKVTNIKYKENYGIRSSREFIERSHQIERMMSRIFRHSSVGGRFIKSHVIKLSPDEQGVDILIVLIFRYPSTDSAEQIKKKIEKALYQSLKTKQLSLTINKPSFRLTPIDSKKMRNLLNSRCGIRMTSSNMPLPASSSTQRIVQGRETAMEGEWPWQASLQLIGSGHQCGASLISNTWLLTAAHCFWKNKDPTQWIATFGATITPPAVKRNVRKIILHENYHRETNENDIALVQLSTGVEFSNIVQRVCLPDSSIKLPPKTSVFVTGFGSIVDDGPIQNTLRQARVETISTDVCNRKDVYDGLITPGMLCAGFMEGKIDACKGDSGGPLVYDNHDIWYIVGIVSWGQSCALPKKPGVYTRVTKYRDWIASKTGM
Test [6] deals with T5, TMPRSS-13 (human, UniProt Q9BYE2).
T5 sequence (single chain, looked up): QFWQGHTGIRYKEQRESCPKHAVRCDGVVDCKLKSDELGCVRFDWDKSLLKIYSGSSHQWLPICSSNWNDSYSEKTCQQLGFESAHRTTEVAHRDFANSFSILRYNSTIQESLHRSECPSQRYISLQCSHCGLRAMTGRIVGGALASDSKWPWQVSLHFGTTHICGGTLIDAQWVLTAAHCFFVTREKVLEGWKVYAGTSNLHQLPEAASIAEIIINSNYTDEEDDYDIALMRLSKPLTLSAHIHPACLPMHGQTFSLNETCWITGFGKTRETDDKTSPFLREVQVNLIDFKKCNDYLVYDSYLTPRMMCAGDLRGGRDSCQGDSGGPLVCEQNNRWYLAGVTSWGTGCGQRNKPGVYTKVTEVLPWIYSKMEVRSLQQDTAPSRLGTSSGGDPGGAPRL
The experiment in a line: ELISA, Strep-tagged protein on streptavidin plate.

Test [7] addresses T2, Human TMPRSS2 expressed on cells. The experiment in a line: cell-based or functional assay.
Test [8] has the same target. Nature of the test: cell-based or functional assay. This is another data set of the same source.
The target in test [9] is Cynomolgus monkey TMPRSS2 expressed on cells (cynomolgus monkey). The experiment in a line: flow cytometry, Daudi transfectant. A general note: In flow cytometry, cells or beads pass a laser one at a time.
Test [10] addresses T1, Human TMPRSS2 recombinant protein, …. The experiment in a line: SPR (BIAcore); rounded repeat of Table 1.
Test [11] has as its target T2, Human TMPRSS2 expressed on cells. Nature of the test: flow cytometry, Daudi transfectant.
Test [12] addresses T6, Mouse TMPRSS2 expressed on cells (mouse, UniProt Q9JIQ8 1-490). The experiment in a line: flow cytometry, Daudi transfectant.
Test [13] has as its target T1, Human TMPRSS2 recombinant protein, …. Nature of the test: SPR (BIAcore), captured mAb, soluble human TMPRSS2 extracellular region.
The target in test [14] is T6, Mouse TMPRSS2 expressed on cells. Nature of the test: flow cytometry, Daudi transfectant. The source holds these as a separate data set.
The subject of test [15] is TMPRSS2 of non-human animal species. Format: binding. Conditions: Table 3; species whose TMPRSS2 is bound.
The target of test [16] is T7, human TMPRSS2 (Homo sapiens, UniProt O15393). The experiment in a line: BIACore binding assay of anti-TMPRSS2 antibodies. Conditions: Table 1, mouse mAbs, 25° C.
Target sequence in this assay (O15393 106-492 limits assumed): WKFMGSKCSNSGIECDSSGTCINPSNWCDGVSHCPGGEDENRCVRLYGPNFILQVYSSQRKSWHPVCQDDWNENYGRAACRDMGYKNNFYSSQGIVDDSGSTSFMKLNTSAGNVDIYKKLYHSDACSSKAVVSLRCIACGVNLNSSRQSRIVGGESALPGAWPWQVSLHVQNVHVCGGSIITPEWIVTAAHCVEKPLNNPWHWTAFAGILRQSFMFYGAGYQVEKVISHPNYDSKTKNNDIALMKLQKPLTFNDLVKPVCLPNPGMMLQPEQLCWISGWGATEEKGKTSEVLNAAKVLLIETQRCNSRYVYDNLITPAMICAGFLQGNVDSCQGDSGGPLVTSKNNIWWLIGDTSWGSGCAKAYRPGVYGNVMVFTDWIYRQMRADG
The target in test [17] is T7, human TMPRSS2. The experiment in a line: Competitive inhibition between anti-TMPRSS2 mAbs (flow cytometry). The test is classed as binding. The following applies: FIG. 3C.
Target sequence in this assay (O15393 whole entry): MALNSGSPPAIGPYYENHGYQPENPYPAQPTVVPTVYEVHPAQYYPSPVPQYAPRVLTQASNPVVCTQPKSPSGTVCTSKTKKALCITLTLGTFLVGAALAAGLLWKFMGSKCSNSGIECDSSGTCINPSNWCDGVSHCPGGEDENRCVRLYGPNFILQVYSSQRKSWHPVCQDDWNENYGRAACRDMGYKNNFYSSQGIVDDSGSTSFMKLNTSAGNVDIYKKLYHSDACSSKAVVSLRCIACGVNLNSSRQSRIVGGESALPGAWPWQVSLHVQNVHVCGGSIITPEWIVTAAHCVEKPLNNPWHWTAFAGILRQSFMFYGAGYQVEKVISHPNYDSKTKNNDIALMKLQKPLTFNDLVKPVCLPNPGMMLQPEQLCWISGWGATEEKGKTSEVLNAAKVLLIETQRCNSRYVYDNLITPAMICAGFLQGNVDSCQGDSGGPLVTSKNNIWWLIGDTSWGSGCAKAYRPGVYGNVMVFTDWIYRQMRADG

T1 sequence (O15393 other isoform, or with tags, fused parts or gaps limits assumed): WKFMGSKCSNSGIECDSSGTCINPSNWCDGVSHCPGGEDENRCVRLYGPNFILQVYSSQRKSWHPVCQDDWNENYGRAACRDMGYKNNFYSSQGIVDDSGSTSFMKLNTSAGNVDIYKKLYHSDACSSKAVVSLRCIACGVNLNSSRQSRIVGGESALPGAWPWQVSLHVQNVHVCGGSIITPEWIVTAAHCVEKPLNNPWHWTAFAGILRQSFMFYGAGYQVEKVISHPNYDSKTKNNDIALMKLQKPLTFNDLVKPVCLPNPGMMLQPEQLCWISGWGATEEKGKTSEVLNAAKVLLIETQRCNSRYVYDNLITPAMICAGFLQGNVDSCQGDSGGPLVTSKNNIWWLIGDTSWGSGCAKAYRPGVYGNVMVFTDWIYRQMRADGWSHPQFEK
T2 sequence (O15393 whole entry): as the sequence (O15393 whole entry) above
T6 sequence (Q9JIQ8 whole entry): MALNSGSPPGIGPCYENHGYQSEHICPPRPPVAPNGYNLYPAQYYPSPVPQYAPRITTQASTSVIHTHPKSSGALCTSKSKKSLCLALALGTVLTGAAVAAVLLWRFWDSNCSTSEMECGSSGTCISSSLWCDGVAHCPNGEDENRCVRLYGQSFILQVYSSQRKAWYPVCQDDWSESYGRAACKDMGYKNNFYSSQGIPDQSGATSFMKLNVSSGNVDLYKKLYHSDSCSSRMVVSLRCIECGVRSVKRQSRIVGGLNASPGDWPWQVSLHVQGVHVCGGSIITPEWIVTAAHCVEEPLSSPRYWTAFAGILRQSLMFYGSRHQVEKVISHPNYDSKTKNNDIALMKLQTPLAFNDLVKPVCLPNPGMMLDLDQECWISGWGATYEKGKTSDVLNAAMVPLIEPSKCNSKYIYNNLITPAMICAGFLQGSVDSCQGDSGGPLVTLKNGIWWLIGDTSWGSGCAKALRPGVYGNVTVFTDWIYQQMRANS

B1: humanized 2228-15 IgG4 (S108P) prototype #3 (antibody, V domains shown)
VH: EIQLVQSGAEVKKPGSSVKVSCKASGYTFTDYYINWMRQAPGQGLEWIGWIFPGSGSSYYNAIFKGRATLTVDTSTNTAYMELSSLRSEDTAFYFCARGDFGNFGGFFTYWGQGTLVTVSS
VL: DVVMTQSPLSLPVTLGQPASISCRASKSVSTSGYSFMHWFQQRPGQSPRRLIYLASNLESGVPDRFSGSGSGTDFTLKISRVEAEDVGVYYCQHSRELPLTFGGGTKVEIK
notes: also called humanized #3; hu #3
The Kd is a measure of binding affinity in units of concentration. As a reminder, the koff is the first-order rate constant of dissociation. One may read the kon as the rate constant with which the complex forms. Take B1: in test [1], the Kd worked out at 0.938 nM, the koff stood at 0.000774 s⁻¹ and the kon was 825000 M⁻¹ s⁻¹. For the same molecule, in [2], the “APC median at 3 µg/ml” value was determined as 862.

B2: humanized 2228-15 IgG4 (S108P) prototype #4 (antibody, V domains shown)
VH: EIQLVQSGAEVKKPGSSVKVSCKASGYTFTDYYINWMRQAPGQGLEWIGWIFPGSGSSYYNAIFKGRATLTVDTSTNTAYMELSSLRSEDTAFYFCARGDFGNFGGFFTYWGQGTLVTVSS
VL: DIVMTQSPDSLAVSLGERATINCRASKSVSTSGYSFMHWYQQKPGQPPKLLIYLASNLESGVPDRFSGSGSGTDFTLTIRPLQAEDVAVYYCQHSRELPLTFGQGTKLEIK
notes: also called humanized #4; hu #4
Regarding B2, in [1], the koff was determined as 0.0001 s⁻¹ and the kon was 1.44e+06 M⁻¹ s⁻¹. In addition, in [2], the “APC median at 3 µg/ml” value was found to be 1990.

B3: 752_1 antibody (antibody, V domains shown)
VH: QVQLQQSGAELARPGASVKLSCKASGYTFTSCGISWVKQRTGQGLEWIGEIYPRGGNTYYNEKFKGKATLTADKSSSTAYMELRSLTSEDSAVYFCARENGNYDPLFAYWGQGTLVTVSA
VL: DIQMTQSPSSLSASLGGKVTITCKASQDINKYIAWYQHKPGKGPRLLIHYTSTLQPGIPSRFSGSGSGRDYSFSIYNLEPEDIATYYCLQYYNLWTFGGGTKLEIK
Turning to B3, the binding result in test [3], in [4], in [5] and in test [6] was “no binding (tested: 10 µg/mL)” throughout.

B4: 2020_12 antibody (antibody, V domains shown)
VH: QVQLQQPGAELAKPGASVKLSCKASGYTFTSYWMHWVKQRPGQGLEWIGLIPPNSGSSNYNEKFKSKATLTVDKSSRTAYMQLSSLTSEDSAVYYCARWDYGSSYGYFDVWGTGTTVTVSS
VL: DIVLTQSPASLAVSLGQRATISCRASESVSTSGYSYMHWYQQKPGQPPKLLIYLASNLESGVPVRFSGSGSGTDFTLNIHPVEEEDAATYYCQHSRELPPTFGAGTKLELK
Regarding B4, the “Activity: Calu-3 Inhibiton” value in [7] was 66. In addition, in test [8], the “IC90, First run; live SARS-CoV-2 infection of Calu-3 cells” value turned out to be 0.23 µg/mL. Further, the “IC90, Second run; live SARS-CoV-2 infection of Calu-3 cells” value in test [8] came to 0.13 µg/mL. Also, the Q2 (percent of cells GFP+ and stained) in test [9] is 0.88; in test [11], 99.9; in [12], 48.5. The values for the Kd in [10] and in test [13] were 2.7 nM and 2.69 nM, respectively. Also, the binding result in [3], in test [4], in test [5] and in [6] was “no binding (tested: 10 µg/mL)” throughout. For the same molecule, the koff in test [13] was determined as 0.00176 s⁻¹. Besides, the kon in [13] is 654000 M⁻¹ s⁻¹.

B5: 2228_15 antibody (antibody, V domains shown)
VH: QVQLQQSGPELVKPGTSVKISCKASGYTFTDYYINWVKQRPGQGLEWIGWIFPGSGSSYYNAIFKGKATLTVDTSSNTAHMSLSSLTSDDSAVYFCARGDFGNFGGFFTYWGQGTLVTVSA
VL: DVVVTQSPASLAVSLGQRATISCRASKSVSTSGYSFMHWYQQKPGQPPKLLIYLASNLESGVPARFSGSGSGTDFILNIHPVEEEDAATYYCQHSRELPLTFGAGTKLELK
For the molecule B5, the Kd stood at 8.4 nM in test [10] and 8.41 nM in [13]. Further, the binding result in [3], in test [4], in test [5] and in [6] was “no binding (tested: 10 µg/mL)” throughout.

B6: 1831_15 antibody (antibody, V domains shown)
VH: QVQLQQPGAELVKPGASVKLSCKASGYSFTTYWMHWVRQRPGQGLEWIGIIHPNSGTTNYNEKFKSKASLTVDKSSSTAYMQLSSLTSEDSAVYYCARLLWDYFDYWGQGTTLTVSS
VL: DIVMSQSPSSLAVSAGEKVTMSCKSSQSLLNSRTRKNFLAWYQQKPGQSPKLLIYWASTRESGVPDRFTGSGSGTDFTLTISSVQAEDLAVYYCKQSYNLYTFGGGTKLEIK
As for B6, the “Activity: Calu-3 Inhibiton” value in test [7] was determined as 44.8. Also, in [10], the Kd is 0.42 nM. Further, in test [14], the binding result is “no binding (tested: 1 µg/mL)”. Besides, in [13], the Kd turned out to be 0.418 nM, the koff turned out to be 0.000236 s⁻¹ and the kon was found to be 563000 M⁻¹ s⁻¹.

B7: 1831_15: mouse anti-human TMPRSS2 monoclonal antibody, IgG2b κ; VH SEQ ID NO: 98, VL SEQ ID NO: 99 (antibody, V domains shown)
VH: QVQLQQPGAELVKPGASVKLSCKASGYSFTTYWMHWVRQRPGQGLEWIGIIHPNSGTTNYNEKFKSKASLTVDKSSSTAYMQLSSLTSEDSAVYYCARLLWDYFDYWGQGTTLTVSS
VL: DIVMSQSPSSLAVSAGEKVTMSCKSSQSLLNSRTRKNFLAWYQQKPGQSPKLLIYWASTRESGVPDRFTGSGSGTDFTLTISSVQAEDLAVYYCKQSYNLYTFGGGTKLEIK
modifications: mouse IgG2b kappa constant regions; 1831_15 VH; 1831_15 VL
Take B7: the Cross-reactivity entry in test [15] is on record as “Cynomolgus monkey”. In test [16], the “ka” value was 563000 M⁻¹ s⁻¹ and the “kd” value came out at 0.000236 s⁻¹.

B8: 2114_16: mouse anti-human TMPRSS2 monoclonal antibody, IgG2c λ; VH SEQ ID NO: 106, VL SEQ ID NO: 107 (antibody, V domains shown)
VH: EVQLQQSGPELVKPGASVKISCKASGYTFTDYYMNWVKRRHGKSLEWIGNINPNNGGTSYNQKFKGKATLTVDKSSSTAYMELRSLTSEDSVVYYCAREGDLFPFAYWGQGTLVTVSA
VL: QAVVTQESALTTSPGETVTLTCRSSIGTVTTSNFANWVQEKPDHLFTGLIGASNNRAPGVPARFSGSLIGDKAALTITGAQTEDEAIYFCALWFSNHWVFGGGTKLTVL
modifications: mouse IgG2c lambda constant regions; 2114_16 VH; 2114_16 VL
As to B8, in test [17], the “competition with 1831_15 antibody for binding to human TMPRSS2” value is “weakly competed”. In [16], the “ka” value amounted to 570000 M⁻¹ s⁻¹ and the “kd” value worked out at 0.000591 s⁻¹.

For the origin of these results see patent US20250277059A1, “ANTIBODY USED TO TREAT CORONAVIRUS INFECTION” (priority 2022, published 2025).
